Data on one substance can be found in patent US20080171347A1.

The target of this test is mouse synaptosomes (synaptosome preparation carrying the BoNT/A acceptor complex).

Consider “active botulinum neurotoxin type A (BoNT/A) (from UniProt P0DPI1 2-1296)”, for which the percent inhibition (maximum at plateau) came to 78%.
